Laboratory results: the supplement of paper PMC5998384

What was measured:
HeLa Kyoto [1] = test: melting temperature (median over replicates), in situ; higher = more thermally stable
HeLa Kyoto [2] = test: solubility change mitosis vs G1/S (difference of NP-40 vs SDS log2 ratios) (log2 ratio difference); higher = more soluble in mitosis
HeLa Kyoto [3] = test: solubility in G1/S (NP-40 vs SDS abundance) (log2 ratio); higher = more soluble; conditions: cell cycle stage: G1/S
HeLa Kyoto [4] = test: thermal stability score vs G1/S (z-score of summed log2 fold changes over temperatures); higher = more thermally stable than in G1/S
[5] = cell cycle stage: early G1 (4.5 h after nocodazole release)
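Throughout, for melting temperature (median over replicates), in situ: HeLa Kyoto cells synchronized by double thymidine or nocodazole block, proteins quantified by TMT10plex mass spectrometry, three independent biological replicates.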
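Throughout, for solubility change mitosis vs G1/S (difference of NP-40 vs SDS log2 ratios): synchronized HeLa Kyoto cells (double thymidine block for G1/S, nocodazole release for mitosis), protein amounts in NP-40 versus SDS lysates quantified by mass spectrometry, three biological replicates.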
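Throughout, for solubility in G1/S (NP-40 vs SDS abundance): HeLa Kyoto cells arrested at G1/S by double thymidine block, proteins quantified by TMT10plex mass spectrometry in mild NP-40 versus SDS extracts, three biological replicates.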
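Throughout, for thermal stability score vs G1/S (z-score of summed log2 fold changes over temperatures): synchronized HeLa Kyoto cells, proteins quantified by TMT10plex mass spectrometry, three biological replicates, mitosis taken 0.5 h after nocodazole release, G1/S directly after double thymidine block.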

| Sequence | melting temperature (HeLa Kyoto [1]; cell cycle stage: G1/S) [°C] | melting temperature (HeLa Kyoto [1]; cell cycle stage: mitosis) [°C] | solubility change mitosis (log2) (HeLa Kyoto [2]) | solubility in G1/S (log2) (HeLa Kyoto [3]) | thermal stability score (HeLa Kyoto [4]; [5]) | thermal stability score (HeLa Kyoto [4]; cell cycle stage: mitosis) |
| --- | --- | --- | --- | --- | --- | --- |
| MEESHFNSNPYFWPSIPTVSGQIENTMFINKMKDQLLPEKGCGLAPPHYPTLLTVPASVSLPSGISMDTESKSDQLTPHSQASVTQNITVVPVPSTGLMTAGVSCSQRWRREGSQSRGPGLVITSPSGSLVTTASSAQTFPISAPMIVSALPPGSQALQVVPDLSKKVASTLTEEGGGGGGGGGSVAPKPPRGRKKKRMLESGLPEMNDPYVLSPEDDDDHQKDGKTYRCRMCSLTFYSKSEMQIHSKSHTETKPHKCPHCSKTFANSSYLAQHIRIHSGAKPYSCNFCEKSFRQLSHLQQHTRIHSKMHTETIKPHKCPHCSKTFANTSYLAQHLRIHSGAKPYNCSYCQKAFRQLSHLQQHTRIHTGDRPYKCAHPGCEKAFTQLSNLQSHRRQHNKDKPFKCHNCHRAYTDAASLEVHLSTHTVKHAKVYTCTICSRAYTSETYLMKHMRKHNPPDLQQQVQAAAAAAAVAQAQAQAQAQAQAQAQAQAQAQASQASQQQQQQQQQQQQQQQQPPPHFQSPGAAPQGGGGGDSNPNPPPQCSFDLTPYKTAEHHKDICLTVTTSTIQVEHLASS [ZNF384] | 51.6 | 52.4 | 0.0582 | -0.109 | -0.69 | -1.1 |
| MEEVRCPEHGTFCFLKTGVRDGPNKGKSFYVCRADTCSFVRATDIPVSHCLLHEDFVVELQGLLLPQDKKEYRLFFRCIRSKAEGKRWCGSIPWQDPDSKEHSVSNKSQHASETFHHSSNWLRNPFKVLDKNQEPALWKQLIKGEGEEKKADKKQREKGDQLFDQKKEQKPEMMEKDLSSGLVPKKKQSVVQEKKQEEGAEIQCEAETGGTHKRDFSEIKSQQCQGNELTRPSASSQEKSSGKSQDVQRESEPLREKVTQLLPQNVHSHNSISKPQKGGPLNKEYTNWEAKETKAKDGPSIQATQKSLPQGHFQERPETHSVPAPGGPAAQAAPAAPGLSLGEGREAATSSDDEEEDDVVFVSSKPGSPLLFDSTLDLETKENLQFPDRSVQRKVSPASGVSKKVEPSDPVARRVYLTTQLKQKKSTLASVNIQALPDKGQKLIKQIQELEEVLSGLTLSPEQGTNEKSNSQVPQQSHFTKTTTGPPHLVPPQPLPRRGTQPVGSLELKSACQVTAGGSSQCYRGHTNQDHVHAVWKITSEAIGQLHRSLESCPGETVVAEDPAGLKVPLLLHQKQALAWLLWRESQKPQGGILADDMGLGKTLTMIALILTQKNQEKKEEKEKSTALTWLSKDDSCDFTSHGTLIICPASLIHHWKNEVEKRVNSNKLRVYLYHGPNRDSRARVLSTYDIVITTYSLVAKEIPTNKQEAEIPGANLNVEGTSTPLLRIAWARIILDEAHNVKNPRVQTSIAVCKLQACARWAVTGTPIQNNLLDMYSLLKFLRCSPFDEFNLWRSQVDNGSKKGGERLSILTKSLLLRRTKDQLDSTGRPLVILPQRKFQLHHLKLSEDEETVYNVFFARSRSALQSYLKRHESRGNQSGRSPNNPFSRVALEFGSEEPRHSEAADSPRSSTVHILSQLLRLRQCCCHLSLLKSALDPMELKGEGLVLSLEEQLSALTLSELRDSEPSSTVSLNGTFFKMELFEGMRESTKISSLLAELEAIQRNSASQKSVIVSQWTNMLKVVALHLKKHGLTYATIDGSVNPKQRMDLVEAFNHSRGPQVMLISLLAGGVGLNLTGGNHLFLLDMHWNPSLEDQACDRIYRVGQQKDVVIHRFVCEGTVEEKILQLQEKKKDLAKQVLSGSGESVTKLTLADLRVLFGI [TTF2] | 48.3 | 49.1 | -0.0303 | -0.107 | 0.916 | 0.826 |
| MEFLKTCVLRRNACTAVCFWRSKVVQKPSVRRISTTSPRSTVMPAWVIDKYGKNEVLRFTQNMMMPIIHYPNEVIVKVHAASVNPIDVNMRSGYGATALNMKRDPLHVKIKGEEFPLTLGRDVSGVVMECGLDVKYFKPGDEVWAAVPPWKQGTLSEFVVVSGNEVSHKPKSLTHTQAASLPYVALTAWSAINKVGGLNDKNCTGKRVLILGASGGVGTFAIQVMKAWDAHVTAVCSQDASELVRKLGADDVIDYKSGSVEEQLKSLKPFDFILDNVGGSTETWAPDFLKKWSGATYVTLVTPFLLNMDRLGIADGMLQTGVTVGSKALKHFWKGVHYRWAFFMASGPCLDDIAELVDAGKIRPVIEQTFPFSKVPEAFLKVERGHARGKTVINVV [RTN4IP1] | 50.7 | 51.7 | -0.0156 | -0.119 | 0.632 | 1.04 |
| MEFQAVVMAVGGGSRMTDLTSSIPKPLLPVGNKPLIWYPLNLLERVGFEEVIVVTTRDVQKALCAEFKMKMKPDIVCIPDDADMGTADSLRYIYPKLKTDVLVLSCDLITDVALHEVVDLFRAYDASLAMLMRKGQDSIEPVPGQKGKKKAVEQRDFIGVDSTGKRLLFMANEADLDEELVIKGSILQKHPRIRFHTGLVDAHLYCLKKYIVDFLMENGSITSIRSELIPYLVRKQFSSASSQQGQEEKEEDLKKKELKSLDIYSFIKEANTLNLAPYDACWNACRGDRWEDLSRSQVRCYVHIMKEGLCSRVSTLGLYMEANRQVPKLLSALCPEEPPVHSSAQIVSKHLVGVDSLIGPETQIGEKSSIKRSVIGSSCLIKDRVTITNCLLMNSVTVEEGSNIQGSVICNNAVIEKGADIKDCLIGSGQRIEAKAKRVNEVIVGNDQLMEI [EIF2B3] | 50.5 | 50.7 | -0.222 | -0.0277 | -0.882 | -0.4 |
| MEGGPAVCCQDPRAELVERVAAIDVTHLEEADGGPEPTRNGVDPPPRARAASVIPGSTSRLLPARPSLSARKLSLQERPAGSYLEAQAGPYATGPASHISPRAWRRPTIESHHVAISDAEDCVQLNQYKLQSEIGKGAYGVVRLAYNESEDRHYAMKVLSKKKLLKQYGFPRRPPPRGSQAAQGGPAKQLLPLERVYQEIAILKKLDHVNVVKLIEVLDDPAEDNLYLVFDLLRKGPVMEVPCDKPFSEEQARLYLRDVILGLEYLHCQKIVHRDIKPSNLLLGDDGHVKIADFGVSNQFEGNDAQLSSTAGTPAFMAPEAISDSGQSFSGKALDVWATGVTLYCFVYGKCPFIDDFILALHRKIKNEPVVFPEEPEISEELKDLILKMLDKNPETRIGVPDIKLHPWVTKNGEEPLPSEEEHCSVVEVTEEEVKNSVRLIPSWTTVILVKSMLRKRSFGNPFEPQARREERSMSAPGNLLVKEGFGEGGKSPELPGVQEDEAAS [CAMKK1] | – | 50.4 | 0.147 | 0.186 | -0.286 | 0.129 |
| MEGMDVDLDPELMQKFSCLGTTDKDVLISEFQRLLGFQLNPAGCAFFLDMTNWNLQAAIGAYYDFESPNISVPSMSFVEDVTIGEGESIPPDTQFVKTWRIQNSGAEAWPPGVCLKYVGGDQFGHVNMVMVRSLEPQEIADVSVQMCSPSRAGMYQGQWRMCTATGLYYGDVIWVILSVEVGGLLGVTQQLSSFETEFNTQPHRKVEGNFNPFASPQKNRQSDENNLKDPGGSEFDSISKNTWAPAPDTWAPAPDQTEQDQNRLSQNSVNLSPSSHANNLSVVTYSKGLHGPYPFGQS [C6ORF106] | 49.4 | – | -0.211 | 0.214 | 0.563 | 0.668 |
| MEGPAEWGPEAALGPEAVLRFLAERGGRALHAELVQHFRGALGGEPEQRARARAHFKELVNAVATVRVDPADGAKYVHLKKRFCEGPSEPSGDPPRIQVTAEPEAPDGPAGPEARDRLPDAAAPESLPGQGRELGEGEPPAPAHWPPLSAGARRKNSRRDVQPLPRTPAPGPSEDLELPPHGCEEADRGSSLVGATAQRPARQNLRDLVMGSSPQLKRSVCPGGSSPGSSSGGGRGRGGGDSDSASVASSSAEEESSGGGSVTLDPLEHAWMLSASDGKWDSLEGLLTCEPGLLVKRDFITGFTCLHWAAKHGRQELLAMLVNFANKHQLPVNIDARTSGGYTALHLAAMHGHVEVVKLLVGAYDADVDIRDYSGKKASQYLSRSIAEEIKNLVGALDEGDGESAAGSGGGRWRLSKVLPSHLITYKLSHALEDGGDHHHHHHSAEGWVGGKAKDPGRKASGSSSGRIKPRLNKIRFRTQIVHTTPSFRDPEQPLEGRGEEGVGEERPVKGHSPFTLRPKSNVFG [SOWAHC] | 51.2 | 49.7 | 0.021 | 0.325 | 0.128 | -0.236 |
| MEGQRWLPLEANPEVTNQFLKQLGLHPNWQFVDVYGMDPELLSMVPRPVCAVLLLFPITEKYEVFRTEEEEKIKSQGQDVTSSVYFMKQTISNACGTIGLIHAIANNKDKMHFESGSTLKKFLEESVSMSPEERARYLENYDAIRVTHETSAHEGQTEAPSIDEKVDLHFIALVHVDGHLYELDGRKPFPINHGETSDETLLEDAIEVCKKFMERDPDELRFNAIALSAA [UCHL3] | 52.2 | 52.2 | 0.183 | 0.205 | 0.593 | -0.422 |
| MEHVTEGSWESLPVPLHPQVLGALRELGFPYMTPVQSATIPLFMRNKDVAAEAVTGSGKTLAFVIPILEILLRREEKLKKSQVGAIIITPTRELAIQIDEVLSHFTKHFPEFSQILWIGGRNPGEDVERFKQQGGNIIVATPGRLEDMFRRKAEGLDLASCVRSLDVLVLDEADRLLDMGFEASINTILEFLPKQRRTGLFSATQTQEVENLVRAGLRNPVRVSVKEKGVAASSAQKTPSRLENYYMVCKADEKFNQLVHFLRNHKQEKHLVFFSTCACVEYYGKALEVLVKGVKIMCIHGKMKYKRNKIFMEFRKLQSGILVCTDVMARGIDIPEVNWVLQYDPPSNASAFVHRCGRTARIGHGGSALVFLLPMEESYINFLAINQKCPLQEMKPQRNTADLLPKLKSMALADRAVFEKGMKAFVSYVQAYAKHECNLIFRLKDLDFASLARGFALLRMPKMPELRGKQFPDFVPVDVNTDTIPFKDKIREKQRQKLLEQQRREKTENEGRRKFIKNKAWSKQKAKKEKKKKMNEKRKREEGSDIEDEDMEELLNDTRLLKKLKKGKITEEEFEKGLLTTGKRTIKTVDLGISDLEDDC [DDX55] | 49.2 | 50.7 | 0.392 | -1.07 | 2.22 | 3.29 |
| MEIGTEISRKIRSAIKGKLQELGAYVDEELPDYIMVMVANKKSQDQMTEDLSLFLGNNTIRFTVWLHGVLDKLRSVTTEPSSLKSSDTNIFDSNVPSNKSNFSRGDERRHEAAVPPLAIPSARPEKRDSRVSTSSQESKTTNVRQTYDDGAATRLMSTVKPLREPAPSEDVIDIKPEPDDLIDEDLNFVQENPLSQKKPTVTLTYGSSRPSIEIYRPPASRNADSGVHLNRLQFQQQQNSIHAAKQLDMQSSWVYETGRLCEPEVLNSLEETYSPFFRNNSEKMSMEDENFRKRKLPVVSSVVKVKKFNHDGEEEEEDDDYGSRTGSISSSVSVPAKPERRPSLPPSKQANKNLILKAISEAQESVTKTTNYSTVPQKQTLPVAPRTRTSQEELLAEVVQGQSRTPRISPPIKEEETKGDSVEKNQGTQQRQLLSRLQIDPVMAETLQMSQDYYDMESMVHADTRSFILKKPKLSEEVVVAPNQESGMKTADSLRVLSGHLMQTRDLVQPDKPASPKFIVTLDGVPSPPGYMSDQEEDMCFEGMKPVNQTAASNKGLRGLLHPQQLHLLSRQLEDPNGSFSNAEMSELSVAQKPEKLLERCKYWPACKNGDECAYHHPISPCKAFPNCKFAEKCLFVHPNCKYDAKCTKPDCPFTHVSRRIPVLSPKPAVAPPAPPSSSQLCRYFPACKKMECPFYHPKHCRFNTQCTRPDCTFYHPTINVPPRHALKWIRPQTSE [ZC3H14] | 49.7 | 51.2 | 0.656 | -0.475 | -0.823 | 0.321 |
